The values below come from PMC3369541 (Methods in Molecular Biology (Clifton, N.j.), 2012).

The experiment addresses T1, FUS1 peptide (wild-type PDZ protein-binding motif).
T1 peptide: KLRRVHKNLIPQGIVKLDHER
Description: ProteinChip array with SELDI-TOF mass spectrometry.

With LGILYILQTLE [Apaf1 peptide (PDZ protein-binding motif)], the binding result is reported as “binds”.
